Measured values taken from paper PMC8564508.

Key:
[1] = molecular target: LH1-RC complex of Rba. sphaeroides IL106 (wild type) (Rhodobacter sphaeroides f. sp. denitrificans strain IL106) (UniProt Q3J1A4); assay: sucrose density gradient centrifugation; supernatant of chromatophores solubilised with 1.0% w/v DDM on a stepwise sucrose gradient (10-40% w/v), 20 mM Tris-HCl pH 8.0, 0.05% w/v DDM, 4 °C, 150,000 x g, 6 h; ratio from volumes and absorption of the dimeric and monomeric layers
[2] = molecular target: LH1-RC complex of the protein-U-deleted strain IL106-ΔU (Rhodobacter sphaeroides f. sp. denitrificans strain IL106) (UniProt Q3J1A4); assay: as above

Substance: LH1-RC complex of Rba. sphaeroides IL106 (wild type) (from UniProt Q3J1A4 1-58; Q3J1A3 1-49; P0C0Y8 1-282; P0C0Y9 1-308; P0C0Y7 1-260; P13402 1-82)
- ratio of dimeric to monomeric LH1-RC [1]: 0.44
- stoichiometry N [1]: 2

Substance: LH1-RC complex of the protein-U-deleted strain IL106-ΔU (from UniProt Q3J1A4 1-58; Q3J1A3 1-49; P0C0Y8 1-282; P0C0Y9 1-308; P0C0Y7 1-260; P13402 1-82)
- ratio of dimeric to monomeric LH1-RC [2]: 0.15
- stoichiometry N [2]: 2
